Laboratory results: publication PMC10994814, “Enzymatic activity of cGAS in the presence of three types of DNAs: limited cGAS stimulation by single-stranded HIV-1 SL2 DNA”

Biological target: human cGAS (Homo sapiens, UniProt Q8N884 1-522)
Assay: EMSA; 1 uM DNA, 3 uM cGAS; EMSA: 1 uM DNA, 0-5 uM cGAS, 20 mM Tris-HCl pH 8.0 (4 C), 200 mM NaCl, on ice 30 min; 8% native PAGE in 25 mM Tris-HCl pH 8.5, 190 mM glycine; ethidium bromide
Conditions: protein: recombinant; tags: none (N-terminal His6-lipoyl domain removed with TEV protease); 20 bp duplex, unpaired G3 on all four ends (fork at both ends)

Chain of human cGAS (Q8N884 whole entry): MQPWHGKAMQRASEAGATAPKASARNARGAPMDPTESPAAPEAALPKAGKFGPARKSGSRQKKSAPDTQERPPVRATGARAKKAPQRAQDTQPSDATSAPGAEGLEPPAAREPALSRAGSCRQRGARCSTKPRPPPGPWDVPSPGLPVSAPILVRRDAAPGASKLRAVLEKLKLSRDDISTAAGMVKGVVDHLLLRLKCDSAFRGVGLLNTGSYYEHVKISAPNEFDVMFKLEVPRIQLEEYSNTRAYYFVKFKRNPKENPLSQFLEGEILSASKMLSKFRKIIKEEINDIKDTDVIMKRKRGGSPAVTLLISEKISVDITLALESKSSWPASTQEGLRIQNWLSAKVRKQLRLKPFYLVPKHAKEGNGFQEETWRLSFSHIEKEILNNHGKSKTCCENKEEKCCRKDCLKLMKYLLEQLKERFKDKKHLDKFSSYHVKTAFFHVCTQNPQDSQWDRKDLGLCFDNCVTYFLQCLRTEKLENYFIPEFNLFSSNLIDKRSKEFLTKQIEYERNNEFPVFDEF

B1: G3 Y-form DNA (dsDNA)
DNA 1: GGGGAACTCCAGCAGGACCATTGGGG
DNA 2: GGGCAATGGTCCTGCTGGAGTTCGGG
binding signal: ~0 % unbound DNA at cGAS/DNA ratio 3
